From patent US20160257728A1 (JOINT CENTER FOR BIOSCIENCES, published 2016) come the findings set out here.

What is called Kd is the concentration at which binding is half-saturated. Higher therefore signals lower affinity. What is called koff is a measure of how fast the partners let go of each other. A low value points to slow dissociation. Usually kon stands for a measure of how fast the partners come together. Higher therefore signals fast association.

First the molecules themselves.
B2: MB109 protein (bioactive recombinant human BMP-9 expressed in E. coli and refolded; functional dimer) (ligand)
chain: MSAGAGSHCQKTSLRVNFEDIGWDSWIIAPKEYEAYECKGGCFFPLADDVTPTKHAIVQTLVHLKFPTKVGKACCVPTKLSPISVLYKDDMGVPTLKYHYEGMSVAECGCR
notes: also called purified MB109

Assay [1] deals with B2. Put plainly: SPR (BIAcore 3000), ECD-Fc on CM5 chip, MB109 as analyte. The protocol: (§1) The receptor ECDs were purchased from R&D Systems (Minneapolis, USA) as C-terminal Fc-tagged chimera. The binding affinities were measured using a BIAcore 3000 (GE Healthcare, USA) following a protocol described previously by Allendorph et al. with minor modification (see, e.g., Allendorph et al., Plos One 6(11):e26402 (2011), and Allendorph et al., Proceedings of the National Academy of Sciences of the United States of America 103(20):7643-7648, 2006). In brief, the ECD-Fc proteins were prepared in a pH 4.0 solution and captured on flow cell 2, 3 and 4 of the CM5 sensor chip at a flow rate of 10 μL/min until the density researched ˜1,000 response units. Flow cell 1 was left blank for background subtraction. For kinetic analysis, purified MB109 was prepared in a series of 2-fold dilution in an assay solution (10 mM HEPES, pH 7.4, 150 mM NaCl, 3.4 mM EDTA and 0.005% Tween-20) and injected over the flow cells at a flow rate of […]. All tests were performed using a set of 2-fold diluted protein concentrations from 20 to 0.3 nM plus the assay solution as a blank. The data fitting was performed using a minimum of 4 concentrations and a global 1:1 Langmuir binding with mass transfer model.
(§2) To determine receptor binding specificity of MB109, purified MB109 was subjected to surface plasmon resonance analysis to determine its binding affinities to immobilized extracellular domains (ECDs) of Type I and Type II receptors, including ALK1, ActRIa (ALK2), ActRIb (ALK4), BMPRIa (ALK3), BMPRIb (ALK6), TGFβRI (ALK5), ALK7, ActRIIa, ActRIIb, BMPRII, TGF-βRII and MISRII. Among these receptor ECDs, MB109 had strong binding affinity only to ALK1, ActRIIb and BMPRII, while the binding to the other receptor ECDs were either very transient (to ActRIIa) or non-detectable (see TABLE 2).
In general terms: In SPR one partner is held on a chip, and binding of the other changes the refractive index at the surface.

A further assay deals with T1, ActRIIb ECD-Fc (human, UniProt Q13705 19-137, limits assumed).
T1 construct: extracellular domain; Bought from R&D Systems as C-terminal Fc-tagged chimera; not shown: C-terminal human IgG1 Fc tag
T1 sequence (looked up): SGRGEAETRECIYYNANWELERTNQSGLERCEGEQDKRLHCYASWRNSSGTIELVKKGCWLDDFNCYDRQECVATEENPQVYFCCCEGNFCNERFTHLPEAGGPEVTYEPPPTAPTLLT
The experiment in a line: SPR (BIAcore 3000), ECD-Fc on CM5 chip, MB109 as analyte, global 1:1 Langmuir with mass transfer. The protocol:
as §1, §2

In the next assay the target is T2, BMPRII ECD-Fc (human, UniProt Q13873 27-150, limits assumed).
T2 construct: extracellular domain; Bought from R&D Systems as C-terminal Fc-tagged chimera; not shown: C-terminal human IgG1 Fc tag
T2 sequence (looked up): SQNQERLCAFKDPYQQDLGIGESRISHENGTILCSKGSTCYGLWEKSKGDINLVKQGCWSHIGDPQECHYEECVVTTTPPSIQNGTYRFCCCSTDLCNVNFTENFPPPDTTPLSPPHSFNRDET
The assay is described as above. The method, then: as §1, §2

The next assay addresses T3, ActRIIa ECD-Fc (human, UniProt P27037 20-135, limits assumed).
T3 construct: extracellular domain; Bought from R&D Systems as C-terminal Fc-tagged chimera; not shown: C-terminal human IgG1 Fc tag
The assay is described as above. The protocol: as §1, §2

For a further assay, the target named is T4, TGF-βRII ECD-Fc (human, UniProt P37173 23-166).
T4 construct: extracellular domain; Bought from R&D Systems as C-terminal Fc-tagged chimera; not shown: C-terminal human IgG1 Fc tag
T4 sequence (P37173 23-166): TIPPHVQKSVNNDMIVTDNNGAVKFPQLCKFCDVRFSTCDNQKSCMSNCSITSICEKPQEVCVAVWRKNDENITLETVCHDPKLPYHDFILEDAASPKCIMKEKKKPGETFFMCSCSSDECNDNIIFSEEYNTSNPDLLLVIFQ
The experiment in a line: SPR (BIAcore 3000), ECD-Fc on CM5 chip, MB109 as analyte. The method, then: as §1, §2

Another assay deals with T5, BMPRIa (ALK3) ECD-Fc (human, UniProt P36894 24-152, limits assumed).
T5 construct: extracellular domain; Bought from R&D Systems as C-terminal Fc-tagged chimera; not shown: C-terminal human IgG1 Fc tag
T5 sequence (P36894 24-152 limits assumed): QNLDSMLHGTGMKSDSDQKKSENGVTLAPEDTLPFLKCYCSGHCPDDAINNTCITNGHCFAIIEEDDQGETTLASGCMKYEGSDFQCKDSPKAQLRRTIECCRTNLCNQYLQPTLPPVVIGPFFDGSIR
The description is as above. The method, then:
as §1, §2

A further assay concerns the target T6, BMPRIb (ALK6) ECD-Fc (human, UniProt O00238 14-126).
T6 construct: extracellular domain; Bought from R&D Systems as C-terminal Fc-tagged chimera; not shown: C-terminal human IgG1 Fc tag
T6 sequence (looked up): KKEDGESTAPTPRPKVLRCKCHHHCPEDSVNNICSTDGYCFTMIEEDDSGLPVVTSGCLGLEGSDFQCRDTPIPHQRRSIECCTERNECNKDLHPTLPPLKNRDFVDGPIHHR
Described as above. The method, then: as §1, §2

In another assay the target is T7, MISRII ECD-Fc (human, UniProt Q16671 18-149, limits assumed).
T7 construct: extracellular domain; Bought from R&D Systems as C-terminal Fc-tagged chimera; not shown: C-terminal human IgG1 Fc tag
T7 sequence (Q16671 18-149 limits assumed): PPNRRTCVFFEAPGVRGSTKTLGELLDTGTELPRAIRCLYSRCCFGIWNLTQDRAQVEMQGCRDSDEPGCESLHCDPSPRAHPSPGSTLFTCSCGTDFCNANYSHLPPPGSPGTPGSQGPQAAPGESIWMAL
Described as above. The protocol: as §1, §2

T3 sequence (P27037 20-135 limits assumed): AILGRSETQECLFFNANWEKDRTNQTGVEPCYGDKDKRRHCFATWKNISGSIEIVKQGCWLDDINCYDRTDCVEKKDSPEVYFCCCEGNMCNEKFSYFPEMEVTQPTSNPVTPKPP

B1: ActRIa (ALK2) ECD-Fc (Fc fusion, UniProt Q04771 21-123, looked up)
chain: MEDEKPKVNPKLYMCVCEGLSCGNEDHCEGQQCFSSLSINDGFHVYQKGCFQVYEQGKMTCKTPPSPGQAVECCQGDWCNRNITAQLPTKGKSFPGTQNFHLE
notes: extracellular domain; Bought from R&D Systems as C-terminal Fc-tagged chimera; not shown: C-terminal human IgG1 Fc tag
Turning to B1, the binding result in assay [1] is “no binding (tested: 20 to 0.3 nM)”.
As for B2, the dissociation constant Kd stood at 0.154 nM with ActRIIb ECD-Fc, 0.33 nM in the assay with BMPRII ECD-Fc and 4.27 nM with ActRIIa ECD-Fc. Further, the koff was 0.00152 s⁻¹ in the assay with ActRIIb ECD-Fc, 0.00153 s⁻¹ with BMPRII ECD-Fc and 0.0121 s⁻¹ in the assay with ActRIIa ECD-Fc. For the same molecule, the kon in the assay with ActRIIb ECD-Fc came to 9.91e+06 M⁻¹ s⁻¹; with BMPRII ECD-Fc it was 4.63e+06 M⁻¹ s⁻¹; with ActRIIa ECD-Fc it was 2.85e+06 M⁻¹ s⁻¹. Further, the binding result with TGF-βRII ECD-Fc, with BMPRIa (ALK3) ECD-Fc, with BMPRIb (ALK6) ECD-Fc and with MISRII ECD-Fc was “no binding (tested: 20 to 0.3 nM)” in each case.

B3: TGF-betaRI (ALK5) ECD-Fc (Fc fusion, UniProt P36897 34-126, looked up)
chain: LQCFCHLCTKDNFTCVTDGLCFVSVTETTDKVIHNSMCIAEIDLIPRDRPFVCAPSSKTGSVTTTYCCNQDHCNKIELPTTVKSSPGLGPVEL
notes: extracellular domain; Bought from R&D Systems as C-terminal Fc-tagged chimera; also called TGFβRI; not shown: C-terminal human IgG1 Fc tag
On to B3, for which the binding result in assay [1] was “no binding (tested: 20 to 0.3 nM)”.

B4: ALK7 ECD-Fc (Fc fusion, UniProt Q8NER5 22-113, looked up)
chain: LSPGLKCVCLLCDSSNFTCQTEGACWASVMLTNGKEQVIKSCVSLPELNAQVFCHSSNNVTKTECCFTDFCNNITLHLPTASPNAPKLGPME
notes: as for B1
As to B4, the binding result in assay [1] is on record as “no binding (tested: 20 to 0.3 nM)”.

B5: ActRIb (ALK4) ECD-Fc (Fc fusion, UniProt P36896 24-126, looked up)
chain: SGPRGVQALLCACTSCLQANYTCETDGACMVSIFNLDGMEHHVRTCIPKVELVPAGKPFYCLSSEDLRNTHCCYTDYCNRIDLRVPSGHLKEPEHPSMWGPVE
notes: as for B1
As to B5, the binding result in assay [1] is reported as “no binding (tested: 20 to 0.3 nM)”.
